Experimental data: US20220040319A1, “METHODS OF TREATING OCULAR CANCER USING ANTI-MET ANTIBODIES AND BISPECIFIC ANTIGEN BINDING MOLECULES THAT BIND MET” (Regeneron Pharmaceuticals, Inc., priority 2019, published 2022)

How the values were obtained:
[1] = target: MET (c-Met, hepatocyte growth factor receptor) on cells (human) (UniProt P08581)
[2] = target: MET (c-Met, hepatocyte growth factor receptor) on cells (human) (UniProt P08581); remark: listed apart in the source
[3] = target: human MET (exon14 skip mutation) on NCI-H596 cells (human) (UniProt P08581); assay: cell-based or functional assay
Chain of human MET (exon14 skip mutation) on NCI-H596 cells (human) (P08581 25-1390, change not shown): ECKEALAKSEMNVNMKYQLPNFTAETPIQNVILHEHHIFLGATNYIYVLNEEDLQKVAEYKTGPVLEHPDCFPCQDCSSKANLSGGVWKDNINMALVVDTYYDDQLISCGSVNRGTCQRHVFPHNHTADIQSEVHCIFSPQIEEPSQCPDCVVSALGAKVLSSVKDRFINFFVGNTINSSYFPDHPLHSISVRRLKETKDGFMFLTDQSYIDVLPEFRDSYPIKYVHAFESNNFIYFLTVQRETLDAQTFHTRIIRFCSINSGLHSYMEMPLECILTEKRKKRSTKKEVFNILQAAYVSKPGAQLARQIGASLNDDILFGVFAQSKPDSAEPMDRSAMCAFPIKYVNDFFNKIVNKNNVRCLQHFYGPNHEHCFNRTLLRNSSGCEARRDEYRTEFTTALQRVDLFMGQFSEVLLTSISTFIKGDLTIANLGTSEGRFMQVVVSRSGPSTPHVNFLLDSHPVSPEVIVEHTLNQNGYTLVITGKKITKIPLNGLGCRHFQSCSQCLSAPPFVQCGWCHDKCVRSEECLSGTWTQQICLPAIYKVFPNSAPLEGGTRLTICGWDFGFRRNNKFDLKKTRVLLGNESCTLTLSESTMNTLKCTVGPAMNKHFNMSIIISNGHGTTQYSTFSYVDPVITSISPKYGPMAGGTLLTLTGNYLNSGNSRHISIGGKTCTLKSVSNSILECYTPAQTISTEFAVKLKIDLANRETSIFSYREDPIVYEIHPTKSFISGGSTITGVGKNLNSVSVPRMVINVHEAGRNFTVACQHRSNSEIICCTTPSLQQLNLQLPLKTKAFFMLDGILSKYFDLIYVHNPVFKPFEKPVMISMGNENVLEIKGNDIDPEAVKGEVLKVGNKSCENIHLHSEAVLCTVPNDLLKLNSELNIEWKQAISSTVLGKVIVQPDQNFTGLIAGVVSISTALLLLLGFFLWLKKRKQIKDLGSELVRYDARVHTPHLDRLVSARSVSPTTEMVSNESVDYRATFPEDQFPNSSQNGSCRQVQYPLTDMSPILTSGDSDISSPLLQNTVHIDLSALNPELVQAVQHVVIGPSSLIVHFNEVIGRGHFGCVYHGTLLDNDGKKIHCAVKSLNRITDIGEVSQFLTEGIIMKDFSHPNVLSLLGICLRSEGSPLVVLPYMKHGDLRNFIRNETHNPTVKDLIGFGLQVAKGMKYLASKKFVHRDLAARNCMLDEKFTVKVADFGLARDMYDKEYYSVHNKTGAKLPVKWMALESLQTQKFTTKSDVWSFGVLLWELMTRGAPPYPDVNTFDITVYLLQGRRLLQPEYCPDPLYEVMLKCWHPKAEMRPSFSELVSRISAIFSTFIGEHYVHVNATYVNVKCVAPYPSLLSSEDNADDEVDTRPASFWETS

Chain of MET (c-Met, hepatocyte growth factor receptor) on cells (human) (P08581 25-1390 limits assumed, form in doubt): as the sequence (P08581 25-1390, change not shown) above

Row | IC50 (read off the curve); blocking of HGF-dependent SRE-driven luciferase signal in HEK293T cells [1] | IC50 (read off the curve); blocking of HGF-induced SRE-luciferase signal in HEK293/SRE-Luc cells [2] | Relative Cell Growth (n = 3), NCI-H596 cells in soft agar, 100 ng/mL HGF, two weeks (normalized to control) [3] | Substance
1 | 0.4 nM | 0.06 nM |  | monovalent anti-MET antibody (made with the heavy and light chain variable sequences of MetMab)
2 |  |  | 7.88 | hepatocyte growth factor (from UniProt P14210 32-728) (ligand)
